# System: Escherichia coli TOP10
# Assay: shrunken log2 fold change of peptide-encoding DNA abundance (4.5 h post-induction vs induction); higher = less antimicrobial activity (less host growth inhibition)
# Settings: time post-induction: 4.5 h; library: site-saturation at positions 5, 18, 19, 20
# 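Also: peptides expressed intracellularly from a pBAD plasmid library in pooled LB shake-flask culture, induced with 0.3% L-arabinose, DNA abundance read by NGS, three biological replicates, DESeq2 with apeglm shrinkage.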
row,Sequence,shrunken log2 fold change
1,RRIRVRPPRLPRPRPRPCQAPRP,-0.0137
2,RRIRIRPPRLPRPRPRPGDMPRP,-0.763
3,RRIRIRPPRLPRPRPRPSNLPRP,-0.931
4,RRIRDRPPRLPRPRPRPTMCPRP,-0.107
5,RRIRTRPPRLPRPRPRPQEQPRP,0.021
6,RRIRNRPPRLPRPRPRPRFVPRP,-0.384
7,RRIRRRPPRLPRPRPRPYHNPRP,-0.819
8,RRIRQRPPRLPRPRPRPWVCPRP,-0.208
9,RRIRLRPPRLPRPRPRPEFDPRP,0.31
10,RRIRERPPRLPRPRPRPHIGPRP,0.00581
11,RRIRMRPPRLPRPRPRPDQSPRP,0.0283
12,RRIRHRPPRLPRPRPRPTHHPRP,-0.132
13,RRIRNRPPRLPRPRPRPMWQPRP,-0.222
14,RRIRSRPPRLPRPRPRPKPSPRP,0.263
15,RRIRERPPRLPRPRPRPACGPRP,0.14
16,RRIRIRPPRLPRPRPRPHQWPRP,-0.246
17,RRIRIRPPRLPRPRPRPDLHPRP,0.0268
18,RRIRERPPRLPRPRPRPIMIPRP,-0.246
19,RRIRGRPPRLPRPRPRPKQVPRP,0.541
20,RRIRPRPPRLPRPRPRPAHNPRP,-0.114
21,RRIRSRPPRLPRPRPRPGWCPRP,0.0616
22,RRIRLRPPRLPRPRPRPEAIPRP,0.0246
23,RRIRPRPPRLPRPRPRPSFNPRP,-0.629
24,RRIRMRPPRLPRPRPRPIMEPRP,-0.00133
25,RRIRDRPPRLPRPRPRPKKYPRP,-0.239

row,Sequence,shrunken log2 fold change
1,RRIRNRPPRLPRPRPRPGPKPRP,0.284
2,RRIRDRPPRLPRPRPRPGSAPRP,0.238
3,RRIRLRPPRLPRPRPRPFCWPRP,0.231
4,RRIRNRPPRLPRPRPRPHKKPRP,-0.00756
5,RRIRWRPPRLPRPRPRPRMKPRP,0.158
6,RRIRSRPPRLPRPRPRPPYMPRP,-0.316
7,RRIRYRPPRLPRPRPRPYERPRP,-0.00804
8,RRIRRRPPRLPRPRPRPFKDPRP,-0.11
9,RRIRHRPPRLPRPRPRPGMLPRP,-0.0926
10,RRIRWRPPRLPRPRPRPTRFPRP,0.286
11,RRIRPRPPRLPRPRPRPLMKPRP,-0.181
12,RRIRLRPPRLPRPRPRPMADPRP,0.0237
13,RRIRIRPPRLPRPRPRPYGYPRP,-0.0764
14,RRIRDRPPRLPRPRPRPNLNPRP,-0.229
15,RRIRCRPPRLPRPRPRPEAHPRP,0.38
16,RRIRHRPPRLPRPRPRPQRPPRP,0.183
17,RRIRVRPPRLPRPRPRPSIVPRP,-0.364
18,RRIRQRPPRLPRPRPRPKVIPRP,-0.0316
19,RRIRHRPPRLPRPRPRPSAMPRP,0.06
20,RRIRSRPPRLPRPRPRPETEPRP,0.997
21,RRIRCRPPRLPRPRPRPMTCPRP,-0.205
22,RRIRMRPPRLPRPRPRPVYMPRP,-0.214
23,RRIRFRPPRLPRPRPRPWTEPRP,-0.119
24,RRIRLRPPRLPRPRPRPCPMPRP,-0.444
25,RRIRVRPPRLPRPRPRPAQVPRP,0.427

row,Sequence,shrunken log2 fold change
1,RRIRMRPPRLPRPRPRPFNHPRP,-0.367
2,RRIRMRPPRLPRPRPRPCKFPRP,0.12
3,RRIRWRPPRLPRPRPRPSWRPRP,0.0809
4,RRIRFRPPRLPRPRPRPAATPRP,0.372
5,RRIRQRPPRLPRPRPRPRASPRP,0.392
6,RRIRTRPPRLPRPRPRPNVLPRP,-0.0117
7,RRIRIRPPRLPRPRPRPFITPRP,-0.626
8,RRIRSRPPRLPRPRPRPKELPRP,0.0175
9,RRIRGRPPRLPRPRPRPMGEPRP,0.902
10,RRIRWRPPRLPRPRPRPPMWPRP,0.108
11,RRIRYRPPRLPRPRPRPIASPRP,-0.196
12,RRIRNRPPRLPRPRPRPIMHPRP,0.00105
13,RRIRNRPPRLPRPRPRPSSVPRP,0.066
14,RRIRWRPPRLPRPRPRPPVSPRP,0.289
15,RRIRNRPPRLPRPRPRPMWNPRP,-0.294
16,RRIRTRPPRLPRPRPRPDGDPRP,0.052
17,RRIRWRPPRLPRPRPRPQNMPRP,-0.0938
18,RRIRFRPPRLPRPRPRPVSEPRP,0.114
19,RRIRLRPPRLPRPRPRPALLPRP,0.295
20,RRIRRRPPRLPRPRPRPYCWPRP,-0.474
21,RRIRSRPPRLPRPRPRPYCWPRP,-0.419
22,RRIRMRPPRLPRPRPRPTLTPRP,1.4
23,RRIRKRPPRLPRPRPRPQFYPRP,-0.555
24,RRIRCRPPRLPRPRPRPEDEPRP,0.076
25,RRIRPRPPRLPRPRPRPPRDPRP,0.521

row,Sequence,shrunken log2 fold change
1,RRIRQRPPRLPRPRPRPDKVPRP,-0.0238
2,RRIRVRPPRLPRPRPRPSVVPRP,0.00363
3,RRIRHRPPRLPRPRPRPRDSPRP,0.0922
4,RRIRERPPRLPRPRPRPMDKPRP,-0.219
5,RRIRLRPPRLPRPRPRPPAPPRP,0.789
6,RRIRNRPPRLPRPRPRPFAQPRP,-0.321
7,RRIRIRPPRLPRPRPRPSYNPRP,-1.15
8,RRIRYRPPRLPRPRPRPLNIPRP,-1.1
9,RRIRIRPPRLPRPRPRPDVCPRP,-0.225
10,RRIRIRPPRLPRPRPRPHAQPRP,0.142
11,RRIRIRPPRLPRPRPRPDVPPRP,-0.372
12,RRIRDRPPRLPRPRPRPGRSPRP,0.0526
13,RRIRRRPPRLPRPRPRPVFVPRP,0.292
14,RRIRYRPPRLPRPRPRPWTLPRP,-0.0151
15,RRIRDRPPRLPRPRPRPESEPRP,0.444
16,RRIRKRPPRLPRPRPRPYTEPRP,-0.295
17,RRIRPRPPRLPRPRPRPNKMPRP,-0.17
18,RRIRVRPPRLPRPRPRPKLRPRP,0.128
19,RRIRFRPPRLPRPRPRPVTLPRP,0.347
20,RRIRARPPRLPRPRPRPGARPRP,0.59
21,RRIRIRPPRLPRPRPRPEGLPRP,-0.185
22,RRIRERPPRLPRPRPRPCEYPRP,-0.0121
23,RRIRERPPRLPRPRPRPRIRPRP,0.0747
24,RRIRRRPPRLPRPRPRPRGHPRP,2.95
25,RRIRLRPPRLPRPRPRPHRRPRP,0.0082

row,Sequence,shrunken log2 fold change
1,RRIRWRPPRLPRPRPRPCPQPRP,-0.134
2,RRIRYRPPRLPRPRPRPSVGPRP,-0.124
3,RRIRSRPPRLPRPRPRPGYAPRP,0.111
4,RRIRIRPPRLPRPRPRPRWWPRP,0.655
5,RRIRNRPPRLPRPRPRPYVLPRP,0.0201
6,RRIRNRPPRLPRPRPRPCRGPRP,-0.0345
7,RRIRVRPPRLPRPRPRPKIIPRP,-0.645
8,RRIRIRPPRLPRPRPRPQFEPRP,-0.0601
9,RRIRSRPPRLPRPRPRPSLKPRP,0.0541
10,RRIRRRPPRLPRPRPRPIHAPRP,-0.102
11,RRIRWRPPRLPRPRPRPLFHPRP,-0.0933
12,RRIRPRPPRLPRPRPRPTGSPRP,0.146
13,RRIRWRPPRLPRPRPRPELTPRP,0.772
14,RRIRARPPRLPRPRPRPNVEPRP,0.327
15,RRIRLRPPRLPRPRPRPGCMPRP,0.646
16,RRIRWRPPRLPRPRPRPSNHPRP,-0.471
17,RRIRCRPPRLPRPRPRPRLQPRP,0.425
18,RRIRDRPPRLPRPRPRPHCGPRP,0.00511
19,RRIRARPPRLPRPRPRPSNQPRP,-0.0197
20,RRIRDRPPRLPRPRPRPTQNPRP,0.789
21,RRIRQRPPRLPRPRPRPEIWPRP,0.618
22,RRIRLRPPRLPRPRPRPNFCPRP,0.101
23,RRIRNRPPRLPRPRPRPTERPRP,-0.25
24,RRIRARPPRLPRPRPRPHKTPRP,0.0429
25,RRIRKRPPRLPRPRPRPTADPRP,0.345

row,Sequence,shrunken log2 fold change
1,RRIRNRPPRLPRPRPRPMQNPRP,-0.11
2,RRIRCRPPRLPRPRPRPFCGPRP,0.011
3,RRIRNRPPRLPRPRPRPIGGPRP,-0.00925
4,RRIRWRPPRLPRPRPRPPGEPRP,0.625
5,RRIRPRPPRLPRPRPRPKCAPRP,0.0543
6,RRIRWRPPRLPRPRPRPKSMPRP,-0.0141
7,RRIRQRPPRLPRPRPRPFLLPRP,-0.165
8,RRIRARPPRLPRPRPRPQESPRP,0.0266
9,RRIRERPPRLPRPRPRPCVFPRP,0.0387
10,RRIRNRPPRLPRPRPRPWLNPRP,-0.00264
11,RRIRQRPPRLPRPRPRPFNEPRP,-0.03
12,RRIRCRPPRLPRPRPRPCYKPRP,0.0187
13,RRIRQRPPRLPRPRPRPFTGPRP,-0.0255
14,RRIRPRPPRLPRPRPRPRRRPRP,0.41
15,RRIRQRPPRLPRPRPRPTPHPRP,0.397
16,RRIRWRPPRLPRPRPRPPDTPRP,0.525
17,RRIRFRPPRLPRPRPRPKQQPRP,0.146
18,RRIRKRPPRLPRPRPRPEKMPRP,-0.0217
19,RRIRERPPRLPRPRPRPCQDPRP,-0.534
20,RRIRSRPPRLPRPRPRPTWVPRP,0.0759
21,RRIRQRPPRLPRPRPRPNQDPRP,-0.0715
22,RRIRSRPPRLPRPRPRPPPGPRP,0.891
23,RRIRHRPPRLPRPRPRPFCHPRP,-0.308
24,RRIRSRPPRLPRPRPRPKMWPRP,0.458
25,RRIRCRPPRLPRPRPRPSWPPRP,-0.155
